PMC2424011

What was measured:
[1] = target: mouse recombinant sFRP-3 (R&D) (mouse) (UniProt P97401); assay: other fluorescence titration; competition: 250 nM native EGF added to 25 nM EGFAlexa488 prior to 100 nM sFRP-3, in PBS; spectrum of Alexa488, peak at 517 nm
[2] = target: Alexa488-conjugated EGF; assay: as above

Row | decrease of the EGFAlexa488 absorbance value at the emission peak when native EGF was added before sFRP-3 [1] [units] | decrease of the EGFAlexa488 absorbance value at the emission peak [2] [units] | Molecule
1 | 7 |  | recombinant mouse EGF (ligand)
2 |  | 10 | mouse recombinant sFRP-3 (R&D) (natural protein) AACEPVRIPLCKSLPWNMTKMPNHLHHSTQANAILAMEQFEGLLGTHCSPDLLFFLCAMYAPICTIDFQHEPIKPCKSVCERARQGCEPILIKYRHSWPESLACDELPVYDRGVCISPEAIVTADGADFPMDSSTGHCRGASSERCKCKPVRATQKTYFRNNYNYVIRAKVKEVKMKCHDVTAVVEVKEILKASLVNIPRDTVNLYTTSGCLCPPLTVNEEYVIMGYEDEERSRLLLVEGSIAEKWKDRLGKKVKRWDMKLRHLGLGKTDASDSTQNQKSGRNSNPRPARS
